Assays:
Assay in all cases: two-hybrid library CCNG1;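 note: natural log of median RNA to DNA barcode read ratio; higher means stronger binding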
[1] = biological target: T1, 4H1081-bN; details: mean of both orientations
T1 chain: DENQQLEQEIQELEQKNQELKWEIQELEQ

[2] = biological target: T2, 4H112-bN
T2 chain: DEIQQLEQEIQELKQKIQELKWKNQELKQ

[3] = biological target: T3, 4H1158-bN
T3 chain: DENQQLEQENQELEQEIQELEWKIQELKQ

[4] = biological target: T4, 4H118-bN
T4 chain: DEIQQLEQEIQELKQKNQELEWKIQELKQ

[5] = biological target: T5, 4H1348-bN
T5 chain: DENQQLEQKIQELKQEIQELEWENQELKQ

[6] = biological target: T6, 4H1373-bN
T6 chain: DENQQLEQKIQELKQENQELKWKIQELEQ

[7] = biological target: T7, 4H1544-bN
T7 chain: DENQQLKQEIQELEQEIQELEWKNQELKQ

[8] = biological target: T8, 4H170-bN
T8 chain: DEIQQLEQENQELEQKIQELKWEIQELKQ

[9] = biological target: T9, 4H1710-bN
T9 chain: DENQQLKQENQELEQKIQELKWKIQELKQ

[10] = biological target: T10, 4H1831-bN
T10 chain: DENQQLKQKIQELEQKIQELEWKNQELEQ

[11] = biological target: T11, 4H1899-bN
T11 chain: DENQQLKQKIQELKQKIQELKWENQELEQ

[12] = biological target: T12, 4H1985-bN
T12 chain: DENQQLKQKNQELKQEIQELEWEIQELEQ

[13] = biological target: T13, 4H2586-bN
T13 chain: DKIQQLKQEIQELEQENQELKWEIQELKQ

[14] = biological target: T14, 4H2627-bN
T14 chain: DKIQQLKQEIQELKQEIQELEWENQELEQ

[15] = biological target: T15, 4H2673-bN
T15 chain: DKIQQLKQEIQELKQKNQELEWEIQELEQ

[16] = biological target: T16, 4H2702-bN
T16 chain: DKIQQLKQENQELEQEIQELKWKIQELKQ

[17] = biological target: T17, 4H3010-bN
T17 chain: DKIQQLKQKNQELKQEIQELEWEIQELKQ

[18] = biological target: T18, 4H3112-bN
T18 chain: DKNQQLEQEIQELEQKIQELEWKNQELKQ

[19] = biological target: T19, 4H3162-bN
T19 chain: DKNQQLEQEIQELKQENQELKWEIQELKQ

[20] = biological target: T20, 4H3175-bN
T20 chain: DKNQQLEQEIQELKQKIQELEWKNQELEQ

[21] = biological target: T21, 4H3277-bN
T21 chain: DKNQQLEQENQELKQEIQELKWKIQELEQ

[22] = biological target: T22, 4H3298-bN
T22 chain: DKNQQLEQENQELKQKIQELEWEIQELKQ

[23] = biological target: T23, 4H3364-bN
T23 chain: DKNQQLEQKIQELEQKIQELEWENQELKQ

[24] = biological target: T24, 4H3427-bN
T24 chain: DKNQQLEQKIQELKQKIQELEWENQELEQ

[25] = biological target: T25, 4H346-bN
T25 chain: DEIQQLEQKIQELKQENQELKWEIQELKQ

[26] = biological target: T26, 4H3462-bN
T26 chain: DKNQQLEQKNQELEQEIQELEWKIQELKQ

[27] = biological target: T27, 4H3497-bN
T27 chain: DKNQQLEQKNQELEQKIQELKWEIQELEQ

[28] = biological target: T28, 4H3613-bN
T28 chain: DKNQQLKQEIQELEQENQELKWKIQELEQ

[29] = biological target: T29, 4H3628-bN
T29 chain: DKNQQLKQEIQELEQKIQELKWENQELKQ

[30] = biological target: T30, 4H3926-bN; details: mean of both orientations
T30 chain: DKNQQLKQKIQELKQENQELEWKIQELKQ

[31] = biological target: T31, 4H4073-bN
T31 chain: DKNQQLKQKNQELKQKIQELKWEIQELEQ

[32] = biological target: T32, 4H457-bN
T32 chain: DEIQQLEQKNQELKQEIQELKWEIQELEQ

[33] = biological target: T33, 4H575-bN
T33 chain: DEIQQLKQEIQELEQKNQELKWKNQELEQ

[34] = biological target: T34, 4H591-bN
T34 chain: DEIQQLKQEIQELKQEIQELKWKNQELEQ

[35] = biological target: T35, 4H626-bN
T35 chain: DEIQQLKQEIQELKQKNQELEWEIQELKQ

[36] = biological target: T36, 4H683-bN
T36 chain: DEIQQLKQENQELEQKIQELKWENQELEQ

[37] = biological target: T37, 4H754-bN
T37 chain: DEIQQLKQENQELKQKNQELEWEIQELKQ

[38] = biological target: T38, 4H780-bN
T38 chain: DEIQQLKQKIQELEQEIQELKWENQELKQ

[39] = biological target: T39, 4H797-bN
T39 chain: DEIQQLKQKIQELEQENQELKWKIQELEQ

[40] = biological target: T40, 4H855-bN
T40 chain: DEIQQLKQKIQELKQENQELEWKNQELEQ

[41] = biological target: T41, 4H906-bN
T41 chain: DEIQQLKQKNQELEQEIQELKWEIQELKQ

[42] = biological target: T42, 4H918-bN
T42 chain: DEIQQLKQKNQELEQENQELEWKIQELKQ

[43] = biological target: T43, 4H953-bN
T43 chain: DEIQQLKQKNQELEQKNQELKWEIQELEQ

[44] = biological target: T44, 4H968-bN
T44 chain: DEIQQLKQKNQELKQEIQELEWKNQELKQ

[45] = biological target: T45, 4H264-bN
T45 chain: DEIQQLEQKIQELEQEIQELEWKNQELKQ

[46] = biological target: T46, 4H2760-bN
T46 chain: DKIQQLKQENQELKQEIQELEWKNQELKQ

[47] = biological target: T47, 4H2859-bN
T47 chain: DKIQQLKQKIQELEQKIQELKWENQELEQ

[48] = biological target: T48, 4H2931-bN
T48 chain: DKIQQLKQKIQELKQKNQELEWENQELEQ

[49] = biological target: T49, 4H3041-bN
T49 chain: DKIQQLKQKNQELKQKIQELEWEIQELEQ

[50] = biological target: T50, 4H3297-bN
T50 chain: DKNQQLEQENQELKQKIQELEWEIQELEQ

[51] = biological target: T51, 4H3381-bN
T51 chain: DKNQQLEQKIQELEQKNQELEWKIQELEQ

[52] = biological target: T52, 4H349-bN
T52 chain: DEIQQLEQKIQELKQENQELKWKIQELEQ

[53] = biological target: T53, 4H56-bN
T53 chain: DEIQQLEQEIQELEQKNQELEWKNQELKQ

[54] = biological target: T54, 4H570-bA
T54 chain: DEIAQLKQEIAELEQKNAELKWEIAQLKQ

[55] = biological target: T55, 4H730-bN
T55 chain: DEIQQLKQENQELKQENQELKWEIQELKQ

[56] = biological target: T56, 4H796-bN
T56 chain: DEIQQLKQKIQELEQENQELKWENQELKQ

[57] = biological target: T57, 4H932-bN
T57 chain: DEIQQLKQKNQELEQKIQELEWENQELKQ

[58] = biological target: T58, 4H949-bN
T58 chain: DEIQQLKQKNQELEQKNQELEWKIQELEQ

[59] = biological target: T59, P10A-bN
T59 chain: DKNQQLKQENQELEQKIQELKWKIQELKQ

[60] = biological target: T60, P10SHb
T60 chain: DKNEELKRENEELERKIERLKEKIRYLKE

[61] = biological target: T61, P11SHb
T61 chain: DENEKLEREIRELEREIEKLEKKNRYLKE

[62] = biological target: T62, P12SHb
T62 chain: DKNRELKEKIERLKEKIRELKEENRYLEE

[63] = biological target: T63, P1SHb
T63 chain: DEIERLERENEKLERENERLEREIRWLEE

[64] = biological target: T64, P2SHb
T64 chain: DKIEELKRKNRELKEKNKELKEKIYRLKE

[65] = biological target: T65, P3SHb
T65 chain: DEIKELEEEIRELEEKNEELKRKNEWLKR

[66] = biological target: T66, P4SHb
T66 chain: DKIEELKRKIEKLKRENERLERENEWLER

[67] = biological target: T67, P5SHb
T67 chain: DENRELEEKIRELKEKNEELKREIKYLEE

[68] = biological target: T68, P6SHb
T68 chain: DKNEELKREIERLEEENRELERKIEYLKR

[69] = biological target: T69, P7SHb
T69 chain: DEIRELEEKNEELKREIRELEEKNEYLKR

[70] = biological target: T70, P8SHb
T70 chain: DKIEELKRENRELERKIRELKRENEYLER

[71] = biological target: T71, P9SHb
T71 chain: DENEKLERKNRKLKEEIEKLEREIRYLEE

For DENQQLEQEIQELEQKNQELKWEIQELEQ [4H1081-bN], the interaction score [1] was -0.711, the interaction score [2] was -0.856 and the interaction score [3] was -1.04. For the same binder, the interaction score [4] was -0.492, the interaction score [5] was -1.49 and the interaction score [6] was -1.6. The interaction score [7] was -1.22, the interaction score [8] was -1.72 and the interaction score [9] was -2. For the same binder, the interaction score [10] was -0.661, the interaction score [11] was -0.693 and the interaction score [12] was -1.65. The interaction score [13] was -0.764, the interaction score [14] was -0.602 and the interaction score [15] was -0.316. The interaction score [16] was 0.0755, the interaction score [17] was -0.379 and the interaction score [18] was -0.643. For the same binder, the interaction score [19] was -1.74, the interaction score [20] was -0.589 and the interaction score [21] was -2.73. The interaction score [22] was -1.1, the interaction score [23] was 0.163 and the interaction score [24] was -0.819. It also gave an interaction score [25] of -0.916, an interaction score [26] of -0.385 and an interaction score [27] of -0.836. For the same binder, the interaction score [28] was -1.17, the interaction score [29] was -0.745 and the interaction score [30] was 1.86. It also gave an interaction score [31] of -0.961, an interaction score [32] of -0.831 and an interaction score [33] of -1.36. The interaction score [34] was -1, the interaction score [35] was -1.12 and the interaction score [36] was -0.818. It also gave an interaction score [37] of -0.498, an interaction score [38] of -1.12 and an interaction score [39] of -0.855. For the same binder, the interaction score [40] was -1.78, the interaction score [41] was -1.43 and the interaction score [42] was -1.87. It also gave an interaction score [43] of -0.906 and an interaction score [44] of -1.97.

With DEIQQLEQKIQELEQEIQELEWKNQELKQ [4H264-bN] the interaction score [45] was -0.816, the interaction score [46] was -0.23 and the interaction score [47] was 1.92. It also gave an interaction score [48] of 1.31, an interaction score [49] of 1.54 and an interaction score [50] of 0.44. For the same binder, the interaction score [23] was 0.517, the interaction score [51] was 0.605 and the interaction score [52] was 0.605. The interaction score [53] was 0.479, the interaction score [54] was -2.9 and the interaction score [55] was 0.137. It also gave an interaction score [56] of -0.162, an interaction score [57] of -0.218 and an interaction score [58] of -0.338. The interaction score [59] was -2.47.

For DKNEELKRENEELERKIERLKEKIRYLKE [P10SHb], the interaction score [60] was 0.734, the interaction score [61] was 1.08 and the interaction score [62] was -0.4. The interaction score [63] was -1.44, the interaction score [64] was 0.782 and the interaction score [65] was -1.86. The interaction score [66] was -0.49, the interaction score [67] was 0.808 and the interaction score [68] was 1.07. For the same binder, the interaction score [69] was -0.582, the interaction score [70] was -0.0171 and the interaction score [71] was 1.97.
